Earlier results, collected in article PMC1854907.

Biological target: SCP2 PTS1 peptide (Homo sapiens)
Assay: ITC

Kd: 0.664 µM
Substance: Pex5p(C) C-terminal domain (from UniProt P50542)
